{
  "source": "paper PMC12549896",
  "about": "“Structural basis for antibiotic resistance by chloramphenicol acetyltransferase type A in Staphylococcus aureus” (Scientific Reports, 2025)",
  "molecules": {"B1": {"name": "Staphylococcus aureus chloramphenicol acetyltransferase 1 (saCAT1) (enzyme)", "chain": "GSLEMNFNKIDLDNWKRKEIFNHYLNQQTTFSITTEIDISVLYRNIKQEGYKFYPAFIFLVTRVINSNTAFRTGYNSDGELGYWDKLEPLYTIFDGVSKTFSGIWTPVKNDFKEFYDLYLSDVEKYNGSGKLFPKTPIPENAFSLSIIPWTSFTGFNLNINNNSNYLLPIITAGKFINKGNSIYLPLSLQVHHSVCDGYHAGLFMNSIQELSDRPNDWLL", "notes": "four amino acids that remain at the N-terminus after thrombin cleavage of the His tag; chloramphenicol acetyltransferase encoded by the cat1 gene of Staphylococcus aureus plasmid pC194; all residues (1-216) modelled in the crystal structure; Cloned into the vector pFs91G (N-terminal 6xHis tag and thrombin site); Homotrimer in solution and in the crystal; one protomer in the asymmetric unit, the …"}},
  "key": {"[1]": {"tested_on": "O=C(N[C@H](CO)[C@H](O)c1ccc([N+](=O)[O-])cc1)C(Cl)Cl", "assay": "purified protein", "assay_type": "biochemical, Staphylococcus aureus", "conditions": "acetyl-CoA ([…] in assay) docked only: inter-protomer pocket; Ser140, Ser142, Tyr20, Thr25, catalytic His189"}, "[2]": {"target": "T1, saCAT1 (chloramphenicol acetyltransferase type A, S. aureus) (Staphylococcus aureus, UniProt P00485)", "T1 construct": "gene cat; residues 1-216; four amino acids (GSLE) remain at the N-terminus after thrombin cleavage; homotrimer", "assay": "DTNB colorimetric acetyltransferase assay at […] nm, FA […], at […] chloramphenicol", "assay_type": "biochemical"}, "[3]": {"target": "the molecule itself", "assay": "crystal structure; X-ray, space group P321, 1.8 Å; hanging drop at 16 °C, 0.01 M cobalt (II) chloride, 0.1 M sodium acetate pH 4.6, 1 M 1,6-hexanediol; trimer on the crystallographic 3-fold axis, interfaces analysed with PISA"}},
  "data": [
    {"molecule": "saCAT1 (chloramphenicol acetyltransferase type A, S. aureus) (Staphylococcus aureus)", "values": [
      {"measurement": "Km", "setting": "[1]", "result": "16.9 ± 3.0", "unit": "µM"}
    ]},
    {"molecule": "CC(=O)O[C@H]1C[C@@]2(C)[C@@H](C[C@@H](O)[C@H]3[C@@]4(C)CC[C@@H](O)[C@@H](C)[C@@H]4CC[C@@]32C)/C1=C(\\CCC=C(C)C)C(=O)O", "note": "[FA, fusidic acid]", "values": [
      {"measurement": "Ki", "setting": "[2]", "result": 83.7, "unit": "µM"}
    ]},
    {"molecule": "B1", "values": [
      {"measurement": "stoichiometry N", "setting": "[3]", "result": 3}
    ]}
  ]
}
